Data as given in patent US20240376151A1, “STAPLED PEPTIDES AND METHODS THEREOF” (FOG PHARMACEUTICALS, INC., priority 2022, published 2024).
Numbered stars: 1 amine (or outer) side, 2 acyl side, 3 side chain; on linkers, the order of the positions; unused ones are H or OH. Bridge positions count the residues as written; N and C are the ends. Ends that are not written are not given here. Phenylene(1,4-NHCOCH2)2 = O=C(C[*:1])Nc1ccc(NC(=O)C[*:2])cc1

What was measured:
WWP2^HECT = target: T1, WWP2^HECT (Homo sapiens, UniProt O00308); assay: Naive Library Presenter Screening (phage, NGS), WWP2^HECT; type: binding; conditions: for interaction data at Target Concentration 10: WWP2 target concentration 10 nM; for interaction data at Target Concentration 30: WWP2 target concentration 30 nM; for interaction data at Target Concentration 100: WWP2 target concentration 100 nM; for interaction data at Target Concentration 300: WWP2 target concentration 300 nM; for interaction data at Target Concentration 1000: WWP2 target concentration 1000 nM
T1 construct: GST-TEV (N, cleaved yes); made in house; host or cells: Escherichia coli BL21 (DE3)
T1 sequence (O00308 492-865): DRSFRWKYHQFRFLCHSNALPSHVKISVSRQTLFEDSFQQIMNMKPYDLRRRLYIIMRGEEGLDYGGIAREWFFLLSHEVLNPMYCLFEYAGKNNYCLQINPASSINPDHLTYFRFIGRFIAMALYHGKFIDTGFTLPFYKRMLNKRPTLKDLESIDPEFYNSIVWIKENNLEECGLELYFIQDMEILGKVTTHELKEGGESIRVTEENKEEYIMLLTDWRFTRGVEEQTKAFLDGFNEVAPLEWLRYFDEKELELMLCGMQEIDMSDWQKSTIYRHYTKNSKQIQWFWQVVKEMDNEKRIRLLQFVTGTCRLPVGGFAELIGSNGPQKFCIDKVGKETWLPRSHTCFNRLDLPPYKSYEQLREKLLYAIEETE

CDK2 = CDK2 (Homo sapiens, UniProt P24941); assay: Phage Library Screening with NGS, CDK2; type: binding; parameters: Full length CDK2 (residues 1-298) with an N-terminal GST-3C-6×his-TEV tag; GST-3C-6×his-TEV (N, cleaved yes); made in house; host or cells: Sf9 (Bac-to-Bac baculovirus); conditions: for phage screen counts, Target Concentration 10: CDK2, target concentration 10; for phage screen counts, Target Concentration 30: CDK2, target concentration 30; for phage screen counts, Target Concentration 100: CDK2, target concentration 100; for phage screen counts, Target Concentration 300: CDK2, target concentration 300
[1] = CDK2, target concentration 1000, first column
[2] = CDK2, target concentration 1000, second column

Row | Sequence | interaction data at Target Concentration 10 (WWP2^HECT) | interaction data at Target Concentration 30 (WWP2^HECT) | interaction data at Target Concentration 100 (WWP2^HECT) | interaction data at Target Concentration 300 (WWP2^HECT) | interaction data at Target Concentration 1000 (WWP2^HECT; first column) | interaction data at Target Concentration 1000 (WWP2^HECT; second column) | phage screen counts, Target Concentration 10 (CDK2) | phage screen counts, Target Concentration 30 (CDK2) | phage screen counts, Target Concentration 100 (CDK2) | phage screen counts, Target Concentration 300 (CDK2) | phage screen counts, Target Concentration 1000 (CDK2; [1]) | phage screen counts, Target Concentration 1000 (CDK2; [2])
1 | DPAIHSCYAAAETCQFF (linker 7-14 via Phenylene(1,4-NHCOCH2)2 (inferred)) | 43 | 87 | 89 | 139 | 127 | 194 | – | – | – | – | – | –
2 | DPAIQNCRSAADVCMFF (linker 7-14 via Phenylene(1,4-NHCOCH2)2; not fully specified (C-terminus)) | 0 | 65 | 96 | 109 | 117 | 127 | – | – | – | – | – | –
3 | DPAIWDCLYAATNCYIN (linker 7-14 via Phenylene(1,4-NHCOCH2)2; not fully specified (C-terminus)) | 0 | 0 | 0 | 8 | 12 | 20 | – | – | – | – | – | –
4 | DPAWWVCSIAAIECESS | – | – | – | – | – | – | 0 | 0 | 10 | 85 | 65 | 77
5 | ECLSAFFTCV (linker 2-9 via Phenylene(1,4-NHCOCH2)2 (inferred)) | – | – | – | – | – | – | 0 | 0 | 0 | 57 | 452 | 284
6 | PACVSAFFACL (linker 3-10 via Phenylene(1,4-NHCOCH2)2 (inferred)) | – | – | – | – | – | – | 0 | 0 | 0 | 0 | 151 | 19
7 | PCLDAFFYCVT (linker 2-9 via Phenylene(1,4-NHCOCH2)2 (inferred)) | – | – | – | – | – | – | 0 | 0 | 0 | 7 | 18 | 51
8 | PMACLSAFFTC (linker 4-11 via Phenylene(1,4-NHCOCH2)2 (inferred)) | – | – | – | – | – | – | 0 | 0 | 0 | 16 | 114 | 176
9 | PSCLSAFFSCY (linker 3-10 via Phenylene(1,4-NHCOCH2)2 (inferred)) | – | – | – | – | – | – | 0 | 1 | 0 | 14 | 722 | 485
10 | PTCLNAFFACE (linker 3-10 via Phenylene(1,4-NHCOCH2)2 (inferred)) | – | – | – | – | – | – | 0 | 0 | 0 | 1 | 109 | 35
11 | WSCLSAYFSC (linker 3-10 via Phenylene(1,4-NHCOCH2)2 (inferred)) | – | – | – | – | – | – | 0 | 0 | 0 | 0 | 19 | 189

Results, then the sequence that gave them:

Row | interaction data at Target Concentration 10 (WWP2^HECT) | interaction data at Target Concentration 30 (WWP2^HECT) | interaction data at Target Concentration 100 (WWP2^HECT) | interaction data at Target Concentration 300 (WWP2^HECT) | interaction data at Target Concentration 1000 (WWP2^HECT; first column) | interaction data at Target Concentration 1000 (WWP2^HECT; second column) | phage screen counts, Target Concentration 10 (CDK2) | phage screen counts, Target Concentration 30 (CDK2) | phage screen counts, Target Concentration 100 (CDK2) | phage screen counts, Target Concentration 300 (CDK2) | phage screen counts, Target Concentration 1000 (CDK2; [1]) | phage screen counts, Target Concentration 1000 (CDK2; [2]) | Sequence
12 | 0 | 179 | 254 | 297 | 283 | 378 | – | – | – | – | – | – | DPAANYCEAAADTCQFF (linker 7-14 via Phenylene(1,4-NHCOCH2)2 (inferred))
13 | 0 | – | 2 | 11 | 66 | 34 | – | – | – | – | – | – | DPAAWDCRYAALACYIH (linker 7-14 via Phenylene(1,4-NHCOCH2)2 (inferred))
14 | 87 | 318 | 384 | 608 | 419 | 565 | – | – | – | – | – | – | DPALIHCRAAADTCAFW (linker 7-14 via Phenylene(1,4-NHCOCH2)2; not fully specified (C-terminus))
15 | – | – | – | – | – | – | 3 | 47 | 258 | 1258 | 822 | 819 | DPAWWVCAVAAIECQEY (linker 7-14 via Phenylene(1,4-NHCOCH2)2 (inferred))
16 | – | – | – | – | – | – | 0 | 0 | 8 | 46 | 206 | 115 | DPAWYACIVAAVDCEHS (linker 7-14 via Phenylene(1,4-NHCOCH2)2 (inferred))
17 | – | – | – | – | – | – | 0 | 0 | 79 | 131 | 54 | 115 | DPAWYECIVAAIECVEY (linker 7-14 via Phenylene(1,4-NHCOCH2)2 (inferred))
18 | – | – | – | – | – | – | 0 | 12 | 0 | 286 | 411 | 473 | DPAWYECVVAAIECHAY (linker 7-14 via Phenylene(1,4-NHCOCH2)2 (inferred))
19 | – | – | – | – | – | – | 0 | 0 | 0 | 49 | 982 | 405 | FECLDAFFSC (linker 3-10 via Phenylene(1,4-NHCOCH2)2 (inferred); not fully specified (N-terminus, C-terminus))
20 | – | – | – | – | – | – | 0 | 0 | 1 | 17 | 320 | 16 | MACVDAFFSC (linker 3-10 via Phenylene(1,4-NHCOCH2)2 (inferred))
21 | – | – | – | – | – | – | 0 | 0 | 0 | 61 | 314 | 257 | PCLEAFFSCVY (linker 2-9 via Phenylene(1,4-NHCOCH2)2 (inferred))
22 | – | – | – | – | – | – | 0 | 0 | 1 | 0 | 39 | 8 | PCMDAFFSCVW (linker 2-9 via Phenylene(1,4-NHCOCH2)2 (inferred))
23 | – | – | – | – | – | – | 0 | 9 | 0 | 84 | 344 | 328 | PECLEAFFDCR (linker 3-10 via Phenylene(1,4-NHCOCH2)2 (inferred))
24 | – | – | – | – | – | – | 0 | 1 | 9 | 9 | 422 | 142 | PECLVAFFSCV (linker 3-10 via Phenylene(1,4-NHCOCH2)2 (inferred))
25 | – | – | – | – | – | – | 0 | 0 | 0 | 1 | 212 | 44 | PFECLSAFFSC (linker 4-11 via Phenylene(1,4-NHCOCH2)2 (inferred))
26 | – | – | – | – | – | – | 0 | 0 | 0 | 2 | 208 | 193 | YECLEAFFNC (linker 3-10 via Phenylene(1,4-NHCOCH2)2 (inferred))
